This note sets out measurements from PMC7934860, “Acetylation of muscle creatine kinase negatively impacts high-energy phosphotransfer in heart failure” (JCI Insight, 2021).

Data set [1] deals with the molecule itself. In words: native gel or EMSA; murine cardiac lysates of sham and TAC hearts (50 mM potassium phosphate, 1 mM EDTA, 1 mM beta-mercaptoethanol, pH 7.4, 0.1% Triton X-100) on 10% native-PAGE at 4°C, blotted with anti-CKM; dimer to monomers. In general terms: Mobility shift assays separate free from complexed probe on a gel.
Data set [2] concerns the molecule itself. In words: native gel or EMSA; human rCKM, nonacetylated or in vitro acetylated, on 10% native-PAGE at 4°C (running buffer 50 mM Tris-Base, 50 mM MOPS, 0.0375% SDS, pH 7.8), blotted with anti-CKM; dimer and monomer bands by densitometry; dimer to monomers.
Data set [3] concerns the molecule itself. In words: cross-linking; quantitative crosslinking MS (XL-MS) with the PIR crosslinker BDP-NHP on rCKM: control, acetylated, and Sirt2-deacetylated; links mapped to PDB 1U6R.
Data set [4] deals with the molecule itself. In words: native gel or EMSA; CKM enriched from TAC-stressed mouse hearts, incubated with or without Sirt2 in vitro, then native-PAGE and anti-CKM blot; dimer to monomers.

B1: Murine CKM in cardiac lysates of sham and TAC-stressed hearts (enzyme)
chain: not shown
modifications: lysine acetylation, significantly higher in the failing (TAC) hearts
notes: creatine kinase M-type (CKM), mouse (129S1/SvImJ); Sham and TAC hearts are kept as one molecule; the treatment is named in the rows; also called muscle CK isoform; source: endogenous, mouse heart lysate (sham and TAC, 12 weeks)
Regarding B1, in data set [1], the “fold decrease of the dimer content, TAC against sham hearts” value came out at 1.4 fold and the “fold increase of the monomer, TAC against sham hearts” value stood at 2.8 fold.

B2: Human recombinant CKM, in vitro acetylated (enzyme)
chain: not shown
modifications: acetyl-lysine at several lysines after in vitro acetylation (lysine residues 11, 32 and 196 are named; full list in Figure 5D)
notes: creatine kinase M-type (muscle form, CKM), human; 381-amino acid polypeptide; Same protein as m1 after in vitro acetylation; also called acetylated rCKM; in vitro acetylated rCKM
B2: in data set [2], the “fold decrease of the dimer band against nonacetylated rCKM” value came out at 2.1 fold and the “fold increase of the monomer band against nonacetylated rCKM” value was determined as 5.6 fold. In data set [3], the “fold reduction of the homodimer crosslink K11-K11 against control rCKM” value was 2 fold and the “fold reduction of the homodimer crosslink K196-K196 against control rCKM” value came out at 9 fold.

B3: CKM enriched from TAC-stressed mouse hearts, deacetylated in vitro by Sirt2 (enzyme)
chain: not shown
modifications: lysine acetylation of failing-heart CKM, reduced by Sirt2
notes: creatine kinase M-type (CKM), mouse (129S1/SvImJ); also called enriched CKM from TAC-stressed hearts + Sirt2; source: enriched from TAC mouse hearts (Blue Sepharose, Deae Sephadex A-50), then incubated with Sirt2
For the protein B3, in data set [4], the “fold decrease of the monomer against enriched TAC CKM without Sirt2” value is 3.5 fold.

B4: Human recombinant creatine kinase MM (rCKM), nonacetylated (enzyme)
chain: not shown
notes: creatine kinase M-type (muscle form, CKM), human; 381-amino acid polypeptide; The rows are of the chain with itself (MM homodimer); also called Human CK MM; CK muscle form; source: bought: R & D Systems (catalog 9070-CK) and Abcam (catalog ab73652)
One may read the stoichiometry N as a count of units in the complex or per binding partner. In the case of B4, the “stoichiometry N” value in data set [2] was 2.

B5: Human recombinant CKM, in vitro acetylated and then deacetylated by Sirt2 (enzyme)
chain: not shown
modifications: acetyl-lysines removed in part by Sirt2 (lysine residues 11, 32 and 196 robustly deacetylated)
notes: creatine kinase M-type (muscle form, CKM), human; 381-amino acid polypeptide; Same protein as m2 after the in vitro deacetylation reaction; also called Sirt2-treated rCKM; Sirt2 deacetylated rCKM
B5: in data set [3], the “fold increase of the homodimer crosslink K11-K11 against acetylated rCKM” value came to 1.3 fold and the “fold increase of the homodimer crosslink K196-K196 against acetylated rCKM” value is 1.8 fold.
